Test results taken from article PMC10819241.
Like-named read-outs stand apart in the source and are kept apart here.

Experiments:
[1] = target: CTB-DV1EDIII (after TEV cleavage of hRID-CTB-DV1EDIII) (not stated | dengue virus serotype 1 (DenKor-07 strain)) (UniProt P01556)
[2] = target: CTB-DV1EDIII (after TEV cleavage of hRID-CTB-DV1EDIII) (not stated | dengue virus serotype 1 (DenKor-07 strain)) (UniProt P01556); test: SDS-PAGE without DTT and boiling (native SDS-PAGE)
[3] = target: CTB-DV1EDIII (after TEV cleavage of hRID-CTB-DV1EDIII) (not stated | dengue virus serotype 1 (DenKor-07 strain)) (UniProt P01556); test: SEC

Measured: stoichiometry N

CTB-DV1EDIII (after TEV cleavage of hRID-CTB-DV1EDIII) (from UniProt P01556 22-124)
5: all assays above
